# According to patent publication US6495664:
# Test system: GFP mutant K8 (-2M, -1G, M1R, S2R, K3R, G4A, E5S, E6I, L7I, S65A, K79R, E90N, N149K, V163A, I167T)
substance,measurement,value
mouse recombinant protein kinase A catalytic subunit (Calbiochem #539-487),"apparent Km of phosphorylation, measured by 32P incorporation",an apparent Km of 9 µM
same,"estimated Km of phosphorylation, based on quenching alone",an estimated Km of 7.7 µM
